Results on five proteins are retold here after publication PMC2790986.

First the molecules themselves.
B1: PON2 (paraoxonase-2), Cys311 and Ser311 variants: N254Q (printed N254G) (protein)
parent chain: MGRLVAVGLLGIALALLGERLLALRNRLKASREVESVDLPHCHLIKGIEAGSEDIDILPNGLAFFSVGLKFPGLHSFAPDKPGGILMMDLKEEKPRARELRISRGFDLASFNPHGISTFIDNDDTVYLFVVNHPEFKNTVEIFKFEEAENSLLHLKTVKHELLPSVNDITAVGPAHFYATNDHYFSDPFLKYLETYLNLHWANVVYYSPNEVKVVAEGFDSANGINISPDDKYIYVADILAHEIHVLEKHTNMNLTQLKVLELDTLVDNLSIDPSSGDIWVGCHPNGQKLFVYDPNNPPSSEVLRIQNILSEKPTVTTVYANNGSVLQGSSVASVYDGKLLIGTLYHRALYCEL
B2: PON2 (paraoxonase-2), Cys311 and Ser311 variants: N323A (protein)
parent chain: MGRLVAVGLLGIALALLGERLLALRNRLKASREVESVDLPHCHLIKGIEAGSEDIDILPNGLAFFSVGLKFPGLHSFAPDKPGGILMMDLKEEKPRARELRISRGFDLASFNPHGISTFIDNDDTVYLFVVNHPEFKNTVEIFKFEEAENSLLHLKTVKHELLPSVNDITAVGPAHFYATNDHYFSDPFLKYLETYLNLHWANVVYYSPNEVKVVAEGFDSANGINISPDDKYIYVADILAHEIHVLEKHTNMNLTQLKVLELDTLVDNLSIDPSSGDIWVGCHPNGQKLFVYDPNNPPSSEVLRIQNILSEKPTVTTVYANNGSVLQGSSVASVYDGKLLIGTLYHRALYCEL
B3: PON2 (paraoxonase-2), Cys311 and Ser311 variants: N254A/N323A (protein)
parent chain: MGRLVAVGLLGIALALLGERLLALRNRLKASREVESVDLPHCHLIKGIEAGSEDIDILPNGLAFFSVGLKFPGLHSFAPDKPGGILMMDLKEEKPRARELRISRGFDLASFNPHGISTFIDNDDTVYLFVVNHPEFKNTVEIFKFEEAENSLLHLKTVKHELLPSVNDITAVGPAHFYATNDHYFSDPFLKYLETYLNLHWANVVYYSPNEVKVVAEGFDSANGINISPDDKYIYVADILAHEIHVLEKHTNMNLTQLKVLELDTLVDNLSIDPSSGDIWVGCHPNGQKLFVYDPNNPPSSEVLRIQNILSEKPTVTTVYANNGSVLQGSSVASVYDGKLLIGTLYHRALYCEL
B4: PON2 (paraoxonase-2), Cys311 and Ser311 variants: N323Q (protein)
parent chain: MGRLVAVGLLGIALALLGERLLALRNRLKASREVESVDLPHCHLIKGIEAGSEDIDILPNGLAFFSVGLKFPGLHSFAPDKPGGILMMDLKEEKPRARELRISRGFDLASFNPHGISTFIDNDDTVYLFVVNHPEFKNTVEIFKFEEAENSLLHLKTVKHELLPSVNDITAVGPAHFYATNDHYFSDPFLKYLETYLNLHWANVVYYSPNEVKVVAEGFDSANGINISPDDKYIYVADILAHEIHVLEKHTNMNLTQLKVLELDTLVDNLSIDPSSGDIWVGCHPNGQKLFVYDPNNPPSSEVLRIQNILSEKPTVTTVYANNGSVLQGSSVASVYDGKLLIGTLYHRALYCEL
B5: PON2 (paraoxonase-2), Cys311 and Ser311 variants: N254A (protein)
parent chain: MGRLVAVGLLGIALALLGERLLALRNRLKASREVESVDLPHCHLIKGIEAGSEDIDILPNGLAFFSVGLKFPGLHSFAPDKPGGILMMDLKEEKPRARELRISRGFDLASFNPHGISTFIDNDDTVYLFVVNHPEFKNTVEIFKFEEAENSLLHLKTVKHELLPSVNDITAVGPAHFYATNDHYFSDPFLKYLETYLNLHWANVVYYSPNEVKVVAEGFDSANGINISPDDKYIYVADILAHEIHVLEKHTNMNLTQLKVLELDTLVDNLSIDPSSGDIWVGCHPNGQKLFVYDPNNPPSSEVLRIQNILSEKPTVTTVYANNGSVLQGSSVASVYDGKLLIGTLYHRALYCEL

The series in a line: 3OC12-HSL inactivation by CHO lysate, bioassay. As to conditions: glycan lost; control: wild-type PON2 Cys311.
Turning to B1, the enzymatic_activity result is listed as “no change”.

As for B2, the enzymatic_activity entry is “decreases”.

For B3, the enzymatic_activity entry is given as “decreases”.

As for B4, the enzymatic_activity entry is recorded as “decreases”.

As to B5, the enzymatic_activity result is “no change”.
